Target: cellugyrin Inner loop 1A peptide
Assay: SPR

“full length SARS-CoV-2 spike protein (from UniProt P0DTC2) (natural protein)” was tested, and the maximum RU was 220 RU.

Reference: article PMC11063343
